Experimental data published in patent publication US10851152B2, “Polymerized peptide and gel having collagen-like structure” (WASEDA UNIVERSITY, priority 2015, dated 2020).

Columns and labels:
Format in all cases: physicochemical
[1] = Hydrogel stability to reduction treatment (DTT) or water with pipetting; conditions: water added instead of reducing solution; pipetting about 90 times/min
Method: There, verification was made on whether gel caused a collapse by breaking the disulfide cross-linking by a reduction treatment. A reducing solution of 100 μl (100 mM DTT, 50 mM phosphate buffer solution (pH 8.4)) or water was added to the hydrogel (30 μl) prepared. […] Then, pipetting procedure was respectively performed at a frequency of about 90 times/min and a volume of 100 μl/each time, using a yellow tip (up to 200 μl).

[2] = Remaining thiol group (Ellman's reagent) in oxidative polymerization reaction; conditions: 10% DMSO, peptide 1% (w/v)
Method: Degassed water was used to prepare a peptide solution having a concentration of 1.11% (w/v), and the solution was then put into a PCR tube. After heating this solution at 80° C. for 5 min, it was then left to sand still at 4° C. overnight. By adding DMSO to this solution, there was prepared a peptide solution having a final concentration of 10% DMSO, peptide 1% (w/v). The PCR tube was then filled with a mineral oil in a way such that the mineral oil covered the surface of the solution. In every measurement, the mineral oil was eliminated from the peptide solution to prepare a peptide solution for oxidation monitoring. Ellman's reagent was prepared in a way such that 9 mg/ml of DTNB was present in 50 mM of a phosphate buffer solution (pH 8.4). 33 mM phosphate buffer solution (pH 8.4) and Ellman's reagent 1.5 mg/ml were left to stand for […], then a light absorbance was then measured after a solution with a final concentration of peptide 0.167 mg/ml. Recorded were changes in absorbance with time, with a moment when DMSO was added being a starting point (0 hour). Since the Ellman's reagent generates 5-mercapto-2-nitrobenzoate (λ max=412 nm, ε=1.55×10^4) depending on the amount of thiol groups (referred to as “SH groups” hereunder) in the peptide, measured was a absorbance at 412 nm. After the measurement, optical path length was compensated by measuring absorbance at 997 nm and 900 nm.

[3] = Hydrogel formation judged by holding of a stainless ball; set-up: key to gel formation, Time (hour) 9 / gel formation, Time (hour) 12 / gel formation, Time (hour) 15 / gel formation, Time (hour) 24 / gel formation, Time (hour) 32 / gel formation, Time (hour) 74 / gel formation, Peptide concentration 0.1% (w/v) / gel formation, Peptide concentration 0.2% (w/v) / gel formation, Peptide concentration 0.3% (w/v) / gel formation, Peptide concentration 0.5% (w/v) / gel formation, Peptide concentration 0.7% (w/v) / gel formation, Peptide concentration 1.0% (w/v): ◯: Gelated; X: Failed to gelate; conditions: for gel-forming capability / gel formation, Time (hour) 9 / gel formation, Time (hour) 12 / gel formation, Time (hour) 15 / gel formation, Time (hour) 24 / gel formation, Time (hour) 32 / gel formation, Time (hour) 74: 1% (w/v) peptide; for gel-forming capability: 10% DMSO, up to three days; for gel formation, Time (hour) 9: 9 hour; for gel formation, Time (hour) 12: 12 hour; for gel formation, Time (hour) 15: 15 hour; for gel formation, Time (hour) 24: 24 hour; for gel formation, Time (hour) 32: 32 hour; for gel formation, Time (hour) 74: 74 hour
Method: Degassed water was used to prepare a peptide solution having a concentration of 1.11% (w/v) or 1.66% (w/v), and the solution was then put into a PCR tube. After heating this solution at 80° C. for 5 min using a polymerase chain reaction (PCR) machine (TaKaRa PCR Thermal Cycler, TAKARA BIO INC.), the solution was then left to stand at 4° C. overnight. By adding DMSO and water to this solution, there was prepared a peptide solution having a concentration of 10% DMSO, 0.1 to 1.5% (w/v). The PCR tube was then filled with a mineral oil in a way such that the mineral oil covered the liquid surface, followed by allowing the solution to stand at room temperature for a given period of time to achieve a gel. Then, gel formation was determined by looking at whether a stainless ball could be held by the gel.

[4] = oxidizing conditions: room temperature, three days

Row | Substance | gel collapse on adding water [1] | time in which peptide turned into a gel [2] [h] | gel-forming capability ([3]; room temperature) | gel formation, Time (hour) 9 [3] | gel formation, Time (hour) 12 [3] | gel formation, Time (hour) 15 [3] | gel formation, Time (hour) 24 [3] | gel formation, Time (hour) 32 [3] | gel formation, Time (hour) 74 [3] | gel formation, Peptide concentration 0.3% (w/v) [3, 4] | gel formation, Peptide concentration 0.5% (w/v) [3, 4] | gel formation, Peptide concentration 0.7% (w/v) [3, 4] | gel formation, Peptide concentration 1.0% (w/v) [3, 4] | ratio of SH amount ([2]; SH amount at 0 hour being 100%, 74 hours) | gel formation, Peptide concentration 0.1% (w/v) ([3]; oxidizing conditions: room temperature, three days, 0.1% (w/v)) | gel formation, Peptide concentration 0.2% (w/v) ([3]; oxidizing conditions: room temperature, three days, 0.2% (w/v)) | concentration at which peptide still turned into a gel ([3]; room temperature, three days)
1 | CCC(POG)6PRG(POG)5CCC (CCCPPGPPGPPGPPGPPGPPGPRGPPGPPGPPGPPGPPGCCC; not fully specified; hydroxyproline; MOD_RES (5)..(5) 4-Hydroxyproline; MOD_RES (8)..(8) 4-Hydroxyproline; MOD_RES (11)..(11) 4-Hydroxyproline; MOD_RES (14)..(14) 4-Hydroxyproline; MOD_RES (17)..(17) 4-Hydroxyproline; MOD_RES (20)..(20) 4-Hydroxyproline; MOD_RES (26)..(26) 4-Hydroxyproline; MOD_RES (29)..(29) 4-Hydroxyproline; MOD_RES (32)..(32) 4-Hydroxyproline; MOD_RES (35)..(35) 4-Hydroxyproline; MOD_RES (38)..(38) 4-Hydroxyprolin) [CCC2] | gel collapse was not observed | 24 | capable of turning into gels | X | X | X | ◯ | ◯ | ◯ | X | ◯ | ◯ | ◯ | – | – | – | –
2 | YCC(POG)6PRG(POG)5CCY (YCCPPGPPGPPGPPGPPGPPGPRGPPGPPGPPGPPGPPGCCY; not fully specified; hydroxyproline; MOD_RES (5)..(5) 4-Hydroxyproline; MOD_RES (8)..(8) 4-Hydroxyproline; MOD_RES (11)..(11) 4-Hydroxyproline; MOD_RES (14)..(14) 4-Hydroxyproline; MOD_RES (17)..(17) 4-Hydroxyproline; MOD_RES (20)..(20) 4-Hydroxyproline; MOD_RES (26)..(26) 4-Hydroxyproline; MOD_RES (29)..(29) 4-Hydroxyproline; MOD_RES (32)..(32) 4-Hydroxyproline; MOD_RES (35)..(35) 4-Hydroxyproline; MOD_RES (38)..(38) 4-Hydroxyprolin) [YCC2] | gel collapse was observed | 74 | capable of turning into gels | X | X | X | X | X | ◯ | X | X | X | ◯ | – | – | – | –
3 | (POG)6PRG(POG)5CC (PPGPPGPPGPPGPPGPPGPRGPPGPPGPPGPPGPPGCC; not fully specified; hydroxyproline; MOD_RES (2)..(2) 4-Hydroxyproline; MOD_RES (5)..(5) 4-Hydroxyproline; MOD_RES (8)..(8) 4-Hydroxyproline; MOD_RES (11)..(11) 4-Hydroxyproline; MOD_RES (14)..(14) 4-Hydroxyproline; MOD_RES (17)..(17) 4-Hydroxyproline; MOD_RES (23)..(23) 4-Hydroxyproline; MOD_RES (26)..(26) 4-Hydroxyproline; MOD_RES (29)..(29) 4-Hydroxyproline; MOD_RES (32)..(32) 4-Hydroxyproline; MOD_RES (35)..(35) 4-Hydroxyproline) [CC1] | – | – | did not turn into a gel | – | – | – | – | – | – | – | – | – | – | approximately 0% | – | – | –
4 | CCCC(POG)6PRG(POG)5CCGC [CCCC2] | gel collapse was not observed | 12 | capable of turning into gels | X | ◯ | ◯ | ◯ | ◯ | ◯ | ◯ | ◯ | ◯ | ◯ | – | X | X | 0.3 % (w/v)
